Patent publication US20210332350A1

Experiments:
Assay in all cases: cell-based or functional assay
[1] = target: Lactobacillus reuteri SSB (Lactobacillus reuteri)
[2] = target: Corynebacterium glutamicum SSB (Corynebacterium glutamicum)
[3] = target: E. coli single-strand DNA-binding protein (SSB) (Escherichia coli) (UniProt P0AGE0)
Chain of UniProt P0AGE0 (P0AGE0 2-178 limits assumed): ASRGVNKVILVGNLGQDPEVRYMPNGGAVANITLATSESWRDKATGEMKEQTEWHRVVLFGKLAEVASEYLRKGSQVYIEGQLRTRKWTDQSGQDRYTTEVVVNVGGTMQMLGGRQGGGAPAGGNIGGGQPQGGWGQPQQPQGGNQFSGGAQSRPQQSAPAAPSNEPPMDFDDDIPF

Substance | Allele Recombination (AR) Frequency in E. coli, bi-cistronic co-expression [1] | Allele Recombination (AR) Frequency in E. coli, bi-cistronic co-expression [2] | increase of AR frequency over the SSAP alone [2] [fold] | Allele Recombination (AR) Frequency in E. coli, bi-cistronic co-expression [3] | increase of recombination frequency over the SSAP alone [1] [fold]
Corynebacterium glutamicum recT | 0.044 | 0.245 | 10 | – | –
λ β expressed from pARC8 in E. coli (no tag stated) (from UniProt P03698 1-261) | – | – | – | 0.09 | –
Lactobacillus reuteri recT1 | 0.003 | 0.000496 | – | – | 10
